Measurements taken from PMC12645435, “Improved Nucleoside (2′-Deoxy)Ribosyltransferases Maximize Enzyme Promiscuity while Maintaining Catalytic Efficiency” (ACS Chemical Biology, 2025).
Where a chain is given by its changes, count along the chain named. Names may count otherwise.

Legend:
[1] = target: T1, CtNDT (Chroococcidiopsis thermalis, UniProt K9TVX3); experiment: steady-state kinetics (details in supplement); format: biochemical; details: nucleobase acceptor; kcat/KM only said to be similar
T1 construct: gene Chro_1188; homotetramer; residues 111 and 118 of the neighbouring subunit complete the site; expression host and tags only in supplement
T1 sequence (K9TVX3 entry or part of it): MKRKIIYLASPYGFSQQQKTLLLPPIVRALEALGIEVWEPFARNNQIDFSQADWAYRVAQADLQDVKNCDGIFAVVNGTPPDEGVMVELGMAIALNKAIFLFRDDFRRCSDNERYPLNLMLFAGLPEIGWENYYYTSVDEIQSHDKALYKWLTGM

[2] = target: T2, CtNDT (Chroococcidiopsis thermalis, UniProt K9TVX3, Y7F); experiment: X-ray crystal structure; format: binding; details: active site; ligand placed in 2 of 4 protomers, less defined density
T2 construct: gene Chro_1188; homotetramer; residues 111 and 118 of the neighbouring subunit complete the site; expression host and tags only in supplement
T2 sequence (K9TVX3 entry or part of it Y7F): as the sequence (K9TVX3 entry or part of it) above, with Y7F counted along it

[3] = target: T3, CtNDT (Chroococcidiopsis thermalis, UniProt K9TVX3, A9S/Y7F); experiment: binding assay (details in supplement)
T3 construct: gene Chro_1188; homotetramer; residues 111 and 118 of the neighbouring subunit complete the site; expression host and tags only in supplement
T3 sequence (K9TVX3 entry or part of it Y7F/A9S): as the sequence (K9TVX3 entry or part of it) above, with Y7F, A9S counted along it

[4] = target: T4, CtNDT (Chroococcidiopsis thermalis, UniProt K9TVX3, Y7F/A9S); experiment: X-ray crystal structure; details: active site, ribosyl-binding pocket
T4 construct: gene Chro_1188; homotetramer; residues 111 and 118 of the neighbouring subunit complete the site; expression host and tags only in supplement
T4 sequence (K9TVX3 entry or part of it Y7F/A9S): as the sequence (K9TVX3 entry or part of it) above, with Y7F, A9S counted along it

[5] = target: T5, CtNDT (Chroococcidiopsis thermalis, UniProt K9TVX3, A9S); experiment: HPLC initial rates, Michaelis-Menten; format: biochemical; details: adenine as nucleobase acceptor
T5 construct: gene Chro_1188; homotetramer; residues 111 and 118 of the neighbouring subunit complete the site; expression host and tags only in supplement
T5 sequence (K9TVX3 entry or part of it A9S): as the sequence (K9TVX3 entry or part of it) above, with A9S counted along it

[6] = target: T6, CtNDT (Chroococcidiopsis thermalis, UniProt K9TVX3, V85S); experiment: HPLC initial rates, Michaelis-Menten; format: biochemical; details: adenine as nucleobase acceptor
T6 construct: gene Chro_1188; homotetramer; residues 111 and 118 of the neighbouring subunit complete the site; expression host and tags only in supplement
T6 sequence (K9TVX3 entry or part of it V85S): as the sequence (K9TVX3 entry or part of it) above, with V85S counted along it

[7] = substrate: OC[C@H]1O[C@@H](n2cnc3c(O)ncnc32)[C@H](O)[C@@H]1O; experiment: HPLC initial rates, Michaelis-Menten; format: biochemical, Chroococcidiopsis thermalis; details: adenine as nucleobase acceptor
[8] = substrate: OC[C@H]1O[C@@H](n2cnc3c(O)ncnc32)[C@H](O)[C@@H]1O; experiment: HPLC initial rates, Michaelis-Menten; format: biochemical, Chroococcidiopsis thermalis; details: adenine as nucleobase acceptor; remark: listed apart in the source
Text: HPLC initial rates, Michaelis-Menten on CtNDT | evaluated with inosine as the sugar donor and adenine as the […]

For O=c1[nH]cnc2nc[nH]c12 [hypoxanthine], the “k cat/K M” value [1] was “uric acid, xanthine, and hypoxanthine, which have similar k cat/K M values”.

O=c1[nH]cnc2c([C@@H]3N[C@H](CO)[C@@H](O)[C@H]3O)c[nH]c12 [Immucillin-H] was tested, and the X-ray crystal structure [2] was 9EMWCtNDTY7F bound to ImmH and the Kd [3] was 590 µM.

With O=c1[nH]c(=O)c2[nH]cnc2[nH]1 [xanthine] the “k cat/K M” value [1] was “uric acid, xanthine, and hypoxanthine, which have similar k cat/K M values”.

In the case of Nc1ncnc2c1ncn2[C@@H]1O[C@H](CO)C[C@H]1O [cordycepin], the X-ray crystal structure [4] is reported as 9EMXCtNDTY7F‑A9S bound to Cordycepin.

With O=c1[nH]cnc2c1ncn2[C@@H]1O[C@H](CO)[C@@H](O)[C@H]1O [inosine] the “K M-inosine” value [5] was “These mutants had modest changes in K M‑inosine” and the “K M-inosine” value [6] was “These mutants had modest changes in K M‑inosine”.

B1: CtNDT (Chroococcidiopsis thermalis PCC 7203; Y7A) (protein)
chain: MKRKIIALASPYGFSQQQKTLLLPPIVRALEALGIEVWEPFARNNQIDFSQADWAYRVAQADLQDVKNCDGIFAVVNGTPPDEGVMVELGMAIALNKAIFLFRDDFRRCSDNERYPLNLMLFAGLPEIGWENYYYTSVDEIQSHDKALYKWLTGM
notes: homotetramer; residues 111 and 118 of the neighbouring subunit complete the site; expression host and tags only in supplement
B1 was tested, and the Km [7] was 530 ± 10 µM and the kcat [7] was 0.02 ± 0.01 s⁻¹.

B2: CtNDT (Chroococcidiopsis thermalis PCC 7203; Y7F) (protein)
chain: B1 chain with A7F
notes: as for B1
B2 gave a Km [7] of 710 ± 170 µM and a kcat [7] of 0.03 ± 0.01 s⁻¹.

B3: CtNDT (Chroococcidiopsis thermalis PCC 7203; A9S/Y7F) (protein)
chain: B1 chain with A7F, A9S
notes: as for B1
For B3, the Km [7] was 620 µM.

B4: CtNDT (Chroococcidiopsis thermalis PCC 7203; D62N) (protein)
chain: B1 chain with A7Y, D62N
notes: as for B1
B4 showed a Km [7] of 800 ± 90 µM and a kcat [7] of 0.002 ± 0.001 s⁻¹.

B5: CtNDT (Chroococcidiopsis thermalis PCC 7203) (protein)
chain: B1 chain with A7Y
notes: as for B1
For B5, the Km [8] was 920 ± 240 µM and the kcat [8] was 0.01 ± 0.01 s⁻¹.
